Data as given in patent publication US20210388087A1 (Chugai, published 2021).

B1: H183/L072 VH Y97A (antibody, name in Kabat numbering, V domains shown)
VH: QVQLVESGGGLVQPGRSLRLSCAASGFTFSNAWMHWVRQAPGKGLEWVAQIKDKGNAYAAYYAPSVKGRFTISRDDSKNSIYLQMNSLKTEDTAVYYCHYVHAASASTVLPAFGVDAWGQGTTVTVSS
VL: DIVMTQSPLSLPVTPGEPASISCQASQELVHMNRNTYLHWYQQKPGQAPRLLIYKVSNRFPGVPDRFSGSGSGTDFTLKISRVEAEDVGVYYCAQGTSVPFTFGQGTKLEIK
B2: H183/L072 VH Y97M (antibody, name in Kabat numbering, V domains shown)
VH: QVQLVESGGGLVQPGRSLRLSCAASGFTFSNAWMHWVRQAPGKGLEWVAQIKDKGNAYAAYYAPSVKGRFTISRDDSKNSIYLQMNSLKTEDTAVYYCHYVHMASASTVLPAFGVDAWGQGTTVTVSS
VL: DIVMTQSPLSLPVTPGEPASISCQASQELVHMNRNTYLHWYQQKPGQAPRLLIYKVSNRFPGVPDRFSGSGSGTDFTLKISRVEAEDVGVYYCAQGTSVPFTFGQGTKLEIK
B3: H183/L072 VH Y97I (antibody, name in Kabat numbering, V domains shown)
VH: QVQLVESGGGLVQPGRSLRLSCAASGFTFSNAWMHWVRQAPGKGLEWVAQIKDKGNAYAAYYAPSVKGRFTISRDDSKNSIYLQMNSLKTEDTAVYYCHYVHIASASTVLPAFGVDAWGQGTTVTVSS
VL: DIVMTQSPLSLPVTPGEPASISCQASQELVHMNRNTYLHWYQQKPGQAPRLLIYKVSNRFPGVPDRFSGSGSGTDFTLKISRVEAEDVGVYYCAQGTSVPFTFGQGTKLEIK
B4: H183/L072 VH Y97L (antibody, name in Kabat numbering, V domains shown)
VH: QVQLVESGGGLVQPGRSLRLSCAASGFTFSNAWMHWVRQAPGKGLEWVAQIKDKGNAYAAYYAPSVKGRFTISRDDSKNSIYLQMNSLKTEDTAVYYCHYVHLASASTVLPAFGVDAWGQGTTVTVSS
VL: DIVMTQSPLSLPVTPGEPASISCQASQELVHMNRNTYLHWYQQKPGQAPRLLIYKVSNRFPGVPDRFSGSGSGTDFTLKISRVEAEDVGVYYCAQGTSVPFTFGQGTKLEIK
B5: H183/L072 VH Y97P (antibody, name in Kabat numbering, V domains shown)
VH: QVQLVESGGGLVQPGRSLRLSCAASGFTFSNAWMHWVRQAPGKGLEWVAQIKDKGNAYAAYYAPSVKGRFTISRDDSKNSIYLQMNSLKTEDTAVYYCHYVHPASASTVLPAFGVDAWGQGTTVTVSS
VL: DIVMTQSPLSLPVTPGEPASISCQASQELVHMNRNTYLHWYQQKPGQAPRLLIYKVSNRFPGVPDRFSGSGSGTDFTLKISRVEAEDVGVYYCAQGTSVPFTFGQGTKLEIK
B6: GLS3000 H27dA (antibody, name in Kabat numbering, V domains shown)
VH: QVQLVESGGGVVQPGRSLRLSCAASGFTFSNAWMHWVRQAPGKGLEWVAQIKAKSNNYATYYAESVKGRFTISRDDSKNSLYLQMNSLKTEDTAVYYCRYVHYGAYYGVDAWGQGTTVTVSS
VL: DIVMTQSPLSLPVTPGEPASISCRSSQSLVASNRNTYLHWYQQKPGQAPRLLIYKVSNRFSGVPDRFSGSGSGTDFTLKISRVEAEDVGVYYCGQGTQVPYTFGQGTKLEIK
notes: one-arm IgG as m2
B7: GLS3000 F55L (antibody, name in Kabat numbering, V domains shown)
VH: QVQLVESGGGVVQPGRSLRLSCAASGFTFSNAWMHWVRQAPGKGLEWVAQIKAKSNNYATYYAESVKGRFTISRDDSKNSLYLQMNSLKTEDTAVYYCRYVHYGAYYGVDAWGQGTTVTVSS
VL: DIVMTQSPLSLPVTPGEPASISCRSSQSLVHSNRNTYLHWYQQKPGQAPRLLIYKVSNRLSGVPDRFSGSGSGTDFTLKISRVEAEDVGVYYCGQGTQVPYTFGQGTKLEIK
notes: one-arm IgG as m2
B8: GLS3000 F55E (antibody, name in Kabat numbering, V domains shown)
VH: QVQLVESGGGVVQPGRSLRLSCAASGFTFSNAWMHWVRQAPGKGLEWVAQIKAKSNNYATYYAESVKGRFTISRDDSKNSLYLQMNSLKTEDTAVYYCRYVHYGAYYGVDAWGQGTTVTVSS
VL: DIVMTQSPLSLPVTPGEPASISCRSSQSLVHSNRNTYLHWYQQKPGQAPRLLIYKVSNRESGVPDRFSGSGSGTDFTLKISRVEAEDVGVYYCGQGTQVPYTFGQGTKLEIK
notes: one-arm IgG as m2
B9: GLS3000 F55S (antibody, name in Kabat numbering, V domains shown)
VH: QVQLVESGGGVVQPGRSLRLSCAASGFTFSNAWMHWVRQAPGKGLEWVAQIKAKSNNYATYYAESVKGRFTISRDDSKNSLYLQMNSLKTEDTAVYYCRYVHYGAYYGVDAWGQGTTVTVSS
VL: DIVMTQSPLSLPVTPGEPASISCRSSQSLVHSNRNTYLHWYQQKPGQAPRLLIYKVSNRSSGVPDRFSGSGSGTDFTLKISRVEAEDVGVYYCGQGTQVPYTFGQGTKLEIK
notes: one-arm IgG as m2
B10: GLS3000 F55H (antibody, name in Kabat numbering, V domains shown)
VH: QVQLVESGGGVVQPGRSLRLSCAASGFTFSNAWMHWVRQAPGKGLEWVAQIKAKSNNYATYYAESVKGRFTISRDDSKNSLYLQMNSLKTEDTAVYYCRYVHYGAYYGVDAWGQGTTVTVSS
VL: DIVMTQSPLSLPVTPGEPASISCRSSQSLVHSNRNTYLHWYQQKPGQAPRLLIYKVSNRHSGVPDRFSGSGSGTDFTLKISRVEAEDVGVYYCGQGTQVPYTFGQGTKLEIK
notes: one-arm IgG as m2
B11: GLS3000 F55P (antibody, name in Kabat numbering, V domains shown)
VH: QVQLVESGGGVVQPGRSLRLSCAASGFTFSNAWMHWVRQAPGKGLEWVAQIKAKSNNYATYYAESVKGRFTISRDDSKNSLYLQMNSLKTEDTAVYYCRYVHYGAYYGVDAWGQGTTVTVSS
VL: DIVMTQSPLSLPVTPGEPASISCRSSQSLVHSNRNTYLHWYQQKPGQAPRLLIYKVSNRPSGVPDRFSGSGSGTDFTLKISRVEAEDVGVYYCGQGTQVPYTFGQGTKLEIK
notes: one-arm IgG as m2
B12: GLS3000 F55M (antibody, name in Kabat numbering, V domains shown)
VH: QVQLVESGGGVVQPGRSLRLSCAASGFTFSNAWMHWVRQAPGKGLEWVAQIKAKSNNYATYYAESVKGRFTISRDDSKNSLYLQMNSLKTEDTAVYYCRYVHYGAYYGVDAWGQGTTVTVSS
VL: DIVMTQSPLSLPVTPGEPASISCRSSQSLVHSNRNTYLHWYQQKPGQAPRLLIYKVSNRMSGVPDRFSGSGSGTDFTLKISRVEAEDVGVYYCGQGTQVPYTFGQGTKLEIK
notes: one-arm IgG as m2
B13: GLS3000 F55R (antibody, name in Kabat numbering, V domains shown)
VH: QVQLVESGGGVVQPGRSLRLSCAASGFTFSNAWMHWVRQAPGKGLEWVAQIKAKSNNYATYYAESVKGRFTISRDDSKNSLYLQMNSLKTEDTAVYYCRYVHYGAYYGVDAWGQGTTVTVSS
VL: DIVMTQSPLSLPVTPGEPASISCRSSQSLVHSNRNTYLHWYQQKPGQAPRLLIYKVSNRRSGVPDRFSGSGSGTDFTLKISRVEAEDVGVYYCGQGTQVPYTFGQGTKLEIK
notes: one-arm IgG as m2
B14: GLS3000 F55K (antibody, name in Kabat numbering, V domains shown)
VH: QVQLVESGGGVVQPGRSLRLSCAASGFTFSNAWMHWVRQAPGKGLEWVAQIKAKSNNYATYYAESVKGRFTISRDDSKNSLYLQMNSLKTEDTAVYYCRYVHYGAYYGVDAWGQGTTVTVSS
VL: DIVMTQSPLSLPVTPGEPASISCRSSQSLVHSNRNTYLHWYQQKPGQAPRLLIYKVSNRKSGVPDRFSGSGSGTDFTLKISRVEAEDVGVYYCGQGTQVPYTFGQGTKLEIK
notes: one-arm IgG as m2
B15: GLS3000 F55I (antibody, name in Kabat numbering, V domains shown)
VH: QVQLVESGGGVVQPGRSLRLSCAASGFTFSNAWMHWVRQAPGKGLEWVAQIKAKSNNYATYYAESVKGRFTISRDDSKNSLYLQMNSLKTEDTAVYYCRYVHYGAYYGVDAWGQGTTVTVSS
VL: DIVMTQSPLSLPVTPGEPASISCRSSQSLVHSNRNTYLHWYQQKPGQAPRLLIYKVSNRISGVPDRFSGSGSGTDFTLKISRVEAEDVGVYYCGQGTQVPYTFGQGTKLEIK
notes: one-arm IgG as m2
B16: GLS3000 F55D (antibody, name in Kabat numbering, V domains shown)
VH: QVQLVESGGGVVQPGRSLRLSCAASGFTFSNAWMHWVRQAPGKGLEWVAQIKAKSNNYATYYAESVKGRFTISRDDSKNSLYLQMNSLKTEDTAVYYCRYVHYGAYYGVDAWGQGTTVTVSS
VL: DIVMTQSPLSLPVTPGEPASISCRSSQSLVHSNRNTYLHWYQQKPGQAPRLLIYKVSNRDSGVPDRFSGSGSGTDFTLKISRVEAEDVGVYYCGQGTQVPYTFGQGTKLEIK
notes: one-arm IgG as m2
B17: GLS3000 F55A (antibody, name in Kabat numbering, V domains shown)
VH: QVQLVESGGGVVQPGRSLRLSCAASGFTFSNAWMHWVRQAPGKGLEWVAQIKAKSNNYATYYAESVKGRFTISRDDSKNSLYLQMNSLKTEDTAVYYCRYVHYGAYYGVDAWGQGTTVTVSS
VL: DIVMTQSPLSLPVTPGEPASISCRSSQSLVHSNRNTYLHWYQQKPGQAPRLLIYKVSNRASGVPDRFSGSGSGTDFTLKISRVEAEDVGVYYCGQGTQVPYTFGQGTKLEIK
notes: one-arm IgG as m2
B18: GLS3000 F55N (antibody, name in Kabat numbering, V domains shown)
VH: QVQLVESGGGVVQPGRSLRLSCAASGFTFSNAWMHWVRQAPGKGLEWVAQIKAKSNNYATYYAESVKGRFTISRDDSKNSLYLQMNSLKTEDTAVYYCRYVHYGAYYGVDAWGQGTTVTVSS
VL: DIVMTQSPLSLPVTPGEPASISCRSSQSLVHSNRNTYLHWYQQKPGQAPRLLIYKVSNRNSGVPDRFSGSGSGTDFTLKISRVEAEDVGVYYCGQGTQVPYTFGQGTKLEIK
notes: one-arm IgG as m2
B19: GLS3000 F55G (antibody, name in Kabat numbering, V domains shown)
VH: QVQLVESGGGVVQPGRSLRLSCAASGFTFSNAWMHWVRQAPGKGLEWVAQIKAKSNNYATYYAESVKGRFTISRDDSKNSLYLQMNSLKTEDTAVYYCRYVHYGAYYGVDAWGQGTTVTVSS
VL: DIVMTQSPLSLPVTPGEPASISCRSSQSLVHSNRNTYLHWYQQKPGQAPRLLIYKVSNRGSGVPDRFSGSGSGTDFTLKISRVEAEDVGVYYCGQGTQVPYTFGQGTKLEIK
notes: one-arm IgG as m2
B20: GLS3000 F55Q (antibody, name in Kabat numbering, V domains shown)
VH: QVQLVESGGGVVQPGRSLRLSCAASGFTFSNAWMHWVRQAPGKGLEWVAQIKAKSNNYATYYAESVKGRFTISRDDSKNSLYLQMNSLKTEDTAVYYCRYVHYGAYYGVDAWGQGTTVTVSS
VL: DIVMTQSPLSLPVTPGEPASISCRSSQSLVHSNRNTYLHWYQQKPGQAPRLLIYKVSNRQSGVPDRFSGSGSGTDFTLKISRVEAEDVGVYYCGQGTQVPYTFGQGTKLEIK
notes: one-arm IgG as m2

target: T1, Human CD137 ECD (human); assay: single mutant vs template dBBDu183H
T1 construct: also called 4-1BB
T1 sequence (chain, as listed by the source limits assumed): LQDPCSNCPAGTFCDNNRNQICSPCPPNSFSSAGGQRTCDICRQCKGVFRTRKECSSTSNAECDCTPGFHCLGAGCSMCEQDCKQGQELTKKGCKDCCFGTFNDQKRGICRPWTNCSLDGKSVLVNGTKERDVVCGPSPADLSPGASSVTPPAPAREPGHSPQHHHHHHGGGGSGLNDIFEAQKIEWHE

In order of rising “fold change of affinity” value:
1. B1  0 fold
2. B2  0 fold
3. B3  0 fold
4. B4  0 fold
5. B5  0 fold

target: T2, CD3 epsilon homodimer protein (UniProt P07766 23-126); assay: SPR Biacore T200, CD3e homodimer on chip, vs unaltered GLS3000 antibody
T2 construct: also called CD3 (CD3 epsilon)
T2 sequence (P07766 23-126): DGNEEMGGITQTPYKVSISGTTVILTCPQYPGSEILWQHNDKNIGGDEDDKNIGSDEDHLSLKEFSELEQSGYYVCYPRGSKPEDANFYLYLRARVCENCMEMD

In order of falling “ratio of amounts bound (Z=Y/X)” value:
1. B14  1.33
2. B13  1.31
3. B19  1.31
4. B11  1.16
5. B17  1.13
6. B18  0.98
7. B10  0.94
8. B20  0.91
9. B15  0.82
10. B12  0.8
11. B7  0.76
12. B8  0.72
13. B9  0.69
14. B16  0.65
15. B6  0.48
